{"source": "paper PMC3669411", "about": "“Characterization of Flavin-Based Fluorescent Proteins: An Emerging Class of Fluorescent Reporters” (PLoS ONE, 2013)", "key": {"iLOV": {"target": "T1, iLOV (Arabidopsis thaliana, UniProt P93025, S394T/S409G/C426A/I452T/F470L/M475V)", "T1 construct": "gene PHOT2; primers give start MIEKNFVI, end LDGSDHV", "T1 sequence (P93025 387-496 S394T/S409G/C426A/I452T/F470L/M475V)": "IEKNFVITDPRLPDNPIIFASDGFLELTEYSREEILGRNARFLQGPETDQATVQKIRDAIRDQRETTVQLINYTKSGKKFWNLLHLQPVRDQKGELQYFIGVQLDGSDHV", "test": "absorbance at […] nm vs Bradford total protein, as purified", "type": "binding", "settings": "FMN-bound fraction of purified protein; noncovalent"}, "[1]": {"target": "EcFbFP, FMN-based fluorescent protein derived from the N-terminal LOV domain of Bacillus subtilis YTVA (E. coli codon-optimized gene) (Bacillus subtilis) (UniProt O34627)", "test": "SEC; Superdex 200 gel filtration on AKTA FPLC, calibrated with globular protein standards; 0.5 M NaCl; oligomeric state = estimated mass divided by calculated monomer mass (110 Da per amino acid); mean of duplicates"}, "[2]": {"target": "EcFbFP, FMN-based fluorescent protein derived from the N-terminal LOV domain of Bacillus subtilis YTVA (E. coli codon-optimized gene) (Bacillus subtilis) (UniProt O34627)", "test": "SEC; Superdex 200 gel filtration on AKTA FPLC, calibrated with globular protein standards; 0.15 M NaCl (methods name phosphate buffered saline); oligomeric state = estimated mass divided by calculated monomer mass (110 Da per amino acid); mean of duplicates"}, "[3]": {"target": "EcFbFP, FMN-based fluorescent protein derived from the N-terminal LOV domain of Bacillus subtilis YTVA (E. coli codon-optimized gene) (Bacillus subtilis) (UniProt O34627)", "test": "SEC; Superdex 200 gel filtration on AKTA FPLC, calibrated with globular protein standards; 1 M NaCl (20 mM Tris hydrochloride, 1 M NaCl, pH 8.0); oligomeric state = estimated mass divided by calculated monomer mass (110 Da per amino acid); mean of duplicates"}, "[4]": {"target": "PpFbFP, FMN-based fluorescent protein from Pseudomonas putida (Pseudomonas putida) (UniProt Q88JB0)", "test": "SEC; Superdex 200 gel filtration on AKTA FPLC, calibrated with globular protein standards; 0.5 M NaCl; oligomeric state = estimated mass divided by calculated monomer mass (110 Da per amino acid); mean of duplicates"}, "[5]": {"target": "PpFbFP, FMN-based fluorescent protein from Pseudomonas putida (Pseudomonas putida) (UniProt Q88JB0)", "test": "SEC; Superdex 200 gel filtration on AKTA FPLC, calibrated with globular protein standards; 0.15 M NaCl (methods name phosphate buffered saline); oligomeric state = estimated mass divided by calculated monomer mass (110 Da per amino acid); mean of duplicates"}, "[6]": {"target": "PpFbFP, FMN-based fluorescent protein from Pseudomonas putida (Pseudomonas putida) (UniProt Q88JB0)", "test": "SEC; Superdex 200 gel filtration on AKTA FPLC, calibrated with globular protein standards; 1 M NaCl (20 mM Tris hydrochloride, 1 M NaCl, pH 8.0); oligomeric state = estimated mass divided by calculated monomer mass (110 Da per amino acid); mean of duplicates"}}}
{"compound": "Cc1cc2nc3c(=O)[nH]c(=O)nc-3n(C[C@H](O)[C@H](O)[C@H](O)COP(=O)(O)O)c2cc1C", "note": "[FMN]", "values": [{"measurement": "Fholo", "setting": "iLOV", "result": "0.39±0.01"}]}
{"compound": "EcFbFP, FMN-based fluorescent protein derived from the N-terminal LOV domain of Bacillus subtilis YTVA (E. coli codon-optimized gene) (from UniProt O34627 20-147) (domain or fragment)", "values": [{"measurement": "stoichiometry N", "setting": "[1]", "result": 1.7}, {"measurement": "stoichiometry N", "setting": "[2]", "result": 1.9}, {"measurement": "stoichiometry N", "setting": "[3]", "result": 1.6}]}
{"compound": "PpFbFP, FMN-based fluorescent protein from Pseudomonas putida (from UniProt Q88JB0 1-151) (natural protein)", "values": [{"measurement": "stoichiometry N", "setting": "[4]", "result": 1.7}, {"measurement": "stoichiometry N", "setting": "[5]", "result": 1.9}, {"measurement": "stoichiometry N", "setting": "[6]", "result": 1.5}]}
